Changes are numbered by the printed parent chain.
B1: 6RL #9-IgG1 (antibody, V domains shown)
VH: QVQLVQSGAEVKKPGASVKVSCKASGYTFTSYYMHWVRQAPGQGLEWMGIINPSGGSTSYAQKFQGRVTMTRDTSTSTVYMELSSLRSEDTAVYYCARDDPGGGEYYFDYWGQGTLVTVSS
VL: QSVLTQPPSVSGAPGQRVTISCTGSRSNMGAGYDVHWYQLLPGAAPKLLISHNTHRPSGVPDRFSGSKSGASASLAITGLQAEDEADYYCQSHDSSLSAVVFGGGTKLTVLS
notes: also called 6RL #9 antibody; 6RL #9-IgG1 antibody
B2: FH4-IgG1 (antibody, V domains shown)
VH: QVQLVQSGAEVKKPGSSVKVSCKASGGTFSSYAISWVRQAPGQGLEWMGGIIPIFGTANYAQKFQGRVTITADESTSTAYMELSSLRSEDTAVYYCARERDYYDSSGYYDAFDIWGQGTMVTVSS
VL: ETTVTQSPSFLSASVGDRVTITCITTTDIDDDMNWFQQEPGKAPKLLISEGNILRPGVPSRFSSSGYGTDFTLTISKLQPEDFATYYCLQSDNLPFTFGQGTKLEIKR
notes: also called FH4-IgG1 antibody
B3: H54/L28-IgG1 (antibody, V domains shown)
VH: QVQLQESGPGLVKPSETLSLTCAVSGYSISDDQAWSWVRQPPGEGLEWIGYISYSGITNYNPSLKGRVTISRDTSKNQFSLKLSSVTAADTAAYYCARSLARTTAMDYWGEGTLVTVSS
VL: DIQMTQSPSSLSASVGDSVTITCQASQDISSYLNWYQQKPGKAPELLIYYGSELHSGVPSRFSGSGSGTDFTFTISSLEAEDAATYYCQQGNSLPYTFGQGTKVEIER
notes: Control anti-human IL-6 receptor antibody described in WO2009125825; also called H54/L28-IgG1 antibody
B4: HM_3_2_R_054 (antibody, human IgG1, kappa, V domains shown)
VH: QVQLVQSGAEVKKPGSSVKVSCKASGGTFSSYAISWVRQAPGQGLEWMGGIIPIFGTANYAQKFQGRVTITADESTSTAYMELSSLRSEDTAVYYCARDNRTLTYYDFWSGYSFWDAFDIWGQGTMVTVSS
VL: DIQMTQSPSSLSASVGDRVTITCRASQSIHSHLAWYQQKPGKAPKLLIYGASHLQSGVPSRFSGSGSGTDFTLTISSLQPEDFATYYCQQRHSYPLTFGQGTKVEIKR
notes: From His library 1; also called HM_3_2_R_054 antibody
B5: HM_3_2_R_017 (antibody, human IgG1, kappa, V domains shown)
VH: QVQLQESGPGLVKPSETLSLTCSVSGGPISSSGYYWGWIRQPPGKGLEWIGTVYFNGDTYYNPSLKSRVTISVDTSKNQFSLKLNSVTAADTAVYYCAREEGYYYYYMDVWGKGTTVTVSS
VL: B4 VL with H30N, A34N, R91S
notes: From His library 1; also called HM_3_2_R_017 antibody
B6: HM_4_1_R_001 (antibody, human IgG1, kappa, V domains shown)
VH: EVQLVESGGGLVQPGGSLRLSCAASGFTFSNYEMNWVRQAPGKGLEWISYISSSGRTFSYADSVKGRFTISRDNAKNSLYLQMNSLRAEDTAVYYCARDSGYSDGWYPSWFDSWGQGTLVTVSS
VL: B4 VL with H30N, G50H, H53N, R91H, H92S, L96Y
notes: From His library 1; also called HM_4_1_R_001 antibody; HM_4_1R_001 antibody
B7: mIAP1B3-3_#024 (antibody, human IgG1, kappa, V domains shown)
VH: QVQLQESGPGLVKPSQTLSLTCAVSGGSISKTYSYWAWIRQHPVKGLEWIGYISYGGGTHYNPSLKSRVTISSDTSKNHFSLNLNSVTAADTAVYYCARSGFRVFGAFDIWGQGTMVTVSS
VL: B4 VL with H30R, A34N, G50D, R91H, H92Y, S93N, Y94S
notes: From His library 1; tested from the culture supernatant of 293-F cells
B8: mIAP1B3-3_#230 (antibody, human IgG1, kappa, V domains shown)
VH: QVQLQQSGPGLVKPSESLSLTCNVSGYYISSGYYWGWIRQPPGKGLEWIGSIYPSGTSHYNPSLKSRVTISLDTSKNQFSLKLSSLSAADTAVYYCARAGVIAGGPRTYAFDIWGQGTTVTVSS
VL: B4 VL with H30R, G50K, R91S, S93H, Y94S
notes: as for B7
B9: mIAP1B3-3_#130 (antibody, human IgG1, kappa, V domains shown)
VH: QVQLQESGPGLVKPSETLSLTCTVSGGSISSSSYYWGWIRQPPGKGLEWIGSIYYSGSTYYNPSLKSRVTISVDTSKNQFSLKLSSVTAADTAVYYCARHGPSGSYYAFDIWGQGTMVTVSS
VL: B4 VL with H30S, A34N, G50K, S93H, Y94S
notes: as for B7

molecular target: T1, soluble human IL-6 receptor (human, UniProt P08887 20-357); assay: SPR (Biacore T100); ratio of the KD values at 3 µM and 2 mM CaCl2
T1 construct: range 1-357; The stated range begins at position 1, so it includes the signal peptide; no cleavage site is stated; also called hsIL-6R
T1 sequence (looked up): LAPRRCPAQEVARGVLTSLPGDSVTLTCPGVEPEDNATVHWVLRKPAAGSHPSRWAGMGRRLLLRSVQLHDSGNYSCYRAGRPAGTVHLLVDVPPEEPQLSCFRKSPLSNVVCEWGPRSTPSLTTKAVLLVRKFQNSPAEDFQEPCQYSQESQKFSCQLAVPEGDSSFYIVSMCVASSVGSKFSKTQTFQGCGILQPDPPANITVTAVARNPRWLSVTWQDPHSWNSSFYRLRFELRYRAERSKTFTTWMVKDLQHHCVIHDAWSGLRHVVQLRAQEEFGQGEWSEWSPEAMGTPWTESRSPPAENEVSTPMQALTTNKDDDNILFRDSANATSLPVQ
Procedure: The antigen-antibody reaction was kinetically analyzed in solutions of 2 mM and 3 μM calcium ion concentrations as high-calcium ion concentration and low-calcium ion concentration conditions, respectively. Each antibody of interest was captured onto Sensor chip CM4 (GE Healthcare Bio-Sciences Corp.) with protein A (Invitrogen Corp.) immobilized thereon in an appropriate amount by the amine coupling method. Two types of buffer solutions were used as running buffers: 10 mM ACES, 150 mM NaCl, 0.05% (w/v) Tween 20, and 2 mM CaCl₂ (pH 7.4); and 10 mM ACES, 150 mM NaCl, 0.05% (w/v) Tween 20, and 3 […] CaCl₂ (pH 7.4). The human IL-6 receptors were also diluted with each of these buffers. Assay was all carried out at 37° C.

| Binder | Ca dependence (KD at 3 µM CaCl2 against KD at 2 mM CaCl2) [times] |
| --- | --- |
| B1 | ≥ 120 |
| B2 | ≥ 60 |
| B3 | ~1 |

molecular target: T2, biotinylated human HMGB1-Avi (human, UniProt P09429 2-215, biotin added at the C-terminal Avitag sequence by biotin ligase (BirA)); assay: phage ELISA (Fab displayed on phage) on biotin-labeled hHMGB1 on a StreptaWell plate, pH 7.6 against pH 5.5
T2 construct: also called biotin-labeled hHMGB1; hHMGB1-Avitag
T2 sequence: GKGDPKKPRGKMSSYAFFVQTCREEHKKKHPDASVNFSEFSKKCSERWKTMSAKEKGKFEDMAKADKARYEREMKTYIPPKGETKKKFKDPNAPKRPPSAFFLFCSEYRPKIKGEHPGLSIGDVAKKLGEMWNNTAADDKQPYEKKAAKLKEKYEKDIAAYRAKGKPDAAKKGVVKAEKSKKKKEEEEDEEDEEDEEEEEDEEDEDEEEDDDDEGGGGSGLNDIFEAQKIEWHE
Procedure: A phage-containing culture supernatant was collected by phage culture according to a conventional method (Methods Mol. Biol. (2002) 178, 133-145) from each single colony of the E. coli obtained after the third and fourth rounds of panning carried out in the step (26-2). After addition of BSA and CaCl₂) (final concentration: 4% BSA and 1.2 mM calcium ion), the phage-containing culture supernatant was subjected to ELISA by the following procedures: StreptaWell 96 microtiter plate (F. Hoffmann-La Roche Ltd.) was coated for 4 hours or longer with 100 μL of PBS containing biotin-labeled hHMGB1. Each well of the plate was washed with PBST to remove unbound antigens. Then, the well was blocked with 250 μL of 4% BSA-TBS (50 mM Tris, 300 mM NaCl, 2.5 mM CaCl₂), and 4% BSA) for 1 hour or longer. […] Each well was washed with 1.2 mM CaCl₂)/TBST (pH 7.6), and 1.2 mM CaCl₂)/TBS (pH 7.6) or 1.2 mM CaCl₂)/150 mM NaCl/50 mM MES (pH 5.5) was added thereto. The plate was left standing at 37° C. for 30 minutes for incubation. After washing with 1.2 mM CaCl₂)/TBST (pH 7.6), HRP-conjugated anti-M13 antibodies (Amersham Pharmacia Biotech Inc.) diluted with 4% BSA-TBS were added to each well. The plate was incubated for 1 hour. After washing with 1.2 mM CaCl₂)/TBST (pH 7.6), TMB single solution (Invitrogen Corp.) was added to the well. The chromogenic reaction of the solution in each well was terminated by the addition of sulfuric acid. Then, the developed color was assayed on the basis of absorbance at 450 nm.

| Binder | binding result |
| --- | --- |
| B4 | binds |
| B5 | binds |
| B6 | binds |

molecular target: T3, human HMGB1 (human, UniProt P09429 2-215); assay: SPR (Biacore T100), antibody captured via protein A/G on CM4, hHMGB1 as analyte, 25 C, 1.2 mM CaCl2, pH 7.4 against pH 5.8
T3 construct: Expressed in FreeStyle 293 cells and purified; analyte in the Biacore assay of step (26-5); also called hHMGB1; recombinant human HMGB1
T3 sequence: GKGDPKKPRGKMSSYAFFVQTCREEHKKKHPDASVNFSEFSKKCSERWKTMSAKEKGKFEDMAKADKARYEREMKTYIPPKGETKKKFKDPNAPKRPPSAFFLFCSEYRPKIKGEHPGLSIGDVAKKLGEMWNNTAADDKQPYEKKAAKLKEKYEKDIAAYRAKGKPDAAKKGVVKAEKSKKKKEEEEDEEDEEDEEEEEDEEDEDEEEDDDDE
Procedure: In order to judge the pH dependence of hHMGB1-binding activity of the antibodies HM_3_2_R_017 (heavy chain: SEQ ID NO: 131 and light chain: SEQ ID NO: 132), HM_3_2_R_054 (heavy chain: SEQ ID NO: 133 and light chain: SEQ ID NO: 134), and HM_4_1_R_001 (heavy chain: SEQ ID NO: 135 and light chain: SEQ ID NO: 136) obtained in the step (26-4), these antibodies were analyzed for their interaction with hHMGB1 using Biacore T100 (GE Healthcare Bio-Sciences Corp.). The interaction of antigen-antibody reaction was analyzed in solutions of pH 7.4 and pH 5.8 as neutral pH and acidic pH conditions, respectively. Approximately of 200 RU of each antibody of interest was captured onto Sensor chip CM4 (GE Healthcare Bio-Sciences Corp.) with protein A/G (Pierce Biotechnology Inc.) immobilized thereon in an appropriate amount by the amine coupling method. Two types of buffer solutions were used as running buffers: 20 mM ACES, 150 mM NaCl, 0.05% (w/v) Tween 20, and 1.2 mM CaCl₂) (pH 7.4); and 20 mM ACES, 150 mM NaCl, 0.05% (w/v) Tween 20, and 1.2 mM CaCl₂) (pH 5.8). hHMGB1 was also diluted with each of these buffers. Assay was all carried out at 25° C.
In the analysis on the interaction of antigen-antibody reaction using the HM_3_2_R_017 antibody, the HM_3_2_R_054 antibody, and the HM_4_1_R_001 antibody, the diluted hHMGB1 solution or a blank running buffer was injected at a flow rate of 10 μL/min for 60 seconds to […] onto the sensor chip. The HM_3_2_R_017 antibody, the HM_3_2_R_054 antibody, and the HM_4_1_R_001 antibody were interacted with hHMGB1. Then, 10 mM glycine-HCl (pH 1.5) was injected thereto at a flow rate of 30 μL/min for 30 seconds to regenerate the sensor chip.

| Binder | binding result |
| --- | --- |
| B4 | binds |
| B5 | binds |
| B6 | binds |

molecular target: T4, GC-mIgA (mouse); assay: SPR (Biacore A100), antibody from culture supernatant captured via protein A/G on CM5, GC-mIgA as analyte, 25 C, 1.2 mM CaCl2, pH 7.4 against pH 5.8
T4 construct: also called recombinant mouse IgA GC-mIgA; mouse IgA
T4 sequence (light, as listed by the source): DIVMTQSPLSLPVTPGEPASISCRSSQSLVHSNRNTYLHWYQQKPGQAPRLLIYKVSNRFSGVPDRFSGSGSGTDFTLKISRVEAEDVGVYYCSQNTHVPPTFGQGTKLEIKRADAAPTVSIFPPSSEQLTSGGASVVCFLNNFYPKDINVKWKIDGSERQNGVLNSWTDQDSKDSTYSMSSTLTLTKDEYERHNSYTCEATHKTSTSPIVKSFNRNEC
Procedure: The culture supernatant obtained by the above method was used to analyze GC-mIgA-binding ability using Biacore A100. Antibodies in the culture supernatant were captured onto Sensor chip CM5 (GE Healthcare Bio-Sciences Corp.) with protein A/G (Pierce Biotechnology Inc.) immobilized thereon in an appropriate amount by the amine coupling method. Two types of buffer solutions were used as running buffers: 20 mM ACES, 150 mM NaCl, 0.05% (w/v) Tween 20, and 1.2 mM CaCl₂) (pH 7.4); and 20 mM ACES, 150 mM NaCl, 0.05% (w/v) Tween 20, and 1.2 mM CaCl₂) (pH 5.8). The interaction of antigen-antibody reaction was analyzed under neutral pH and acidic pH conditions. GC-mIgA was also diluted with each of these buffers and injected at a flow rate of 10 μL/min for 60 seconds to interact the antigen with the antibodies captured on the sensor chip. Then, 10 mM glycine-HCl (pH 1.5) was injected thereto at a flow rate of 30 μL/min for 30 seconds to regenerate the sensor chip. Assay was all carried out at 25° C.

| Binder | binding result |
| --- | --- |
| B7 | binds |
| B8 | binds |
| B9 | binds |

Source: patent US20220187308A1 (published 2022)
